assay: soluble on expression in E. coli; label from the status in PepcDB or PDB records

Sequence	soluble on expression in E. coli
MELLCPAGNLPALKAAIDNGADAVYIGLKDDTNARHFAGLNFTDKKLQEAVNYVHSRKRKLHIAINTFAHPDGYARWQRAVDMAAQLGADALILADLAMLEYAAERYPQVERHVSVQASATNDEAIRFYQRHFDVARVVLPRVLSMHQVKQLSRTSPVPLEVFAFGSLCIMAEGRCYLSSYLTGESPNTVGACSPARFVRWQQTPQGMESRLNDVLIDRYEDHENAGYPTLCKGRYRVDGQRYHALEEPTSLNTLELLPELFAANIASVKIEGRQRSPAYVSQVAKVWRQAIDLYQANPAQFAAKAEWMEQLGAMSEGTQTTLGAYHRKWQ	not soluble
MELVAYAMAAKLITETVQITINSISETLETINSDPTVRIDNLNELKRRNDEAHSQYMKELKEAREESDDALAKRQATADSQISELINSNNEAIRELQKKFDEDAAAYDRSIKETTREHDQKMKEMRSETREAQEKAERNHREKMSKIKEDHDKERVAALQKIDAAKKEGAEMIALVEMEKQKIVRERADEMNEHHKNMETMTKEYHQKREEIHEVIKNKKLDILKDKREHQRIEHEKISENMKNAFNALLNVQRENNAKHLVSNFQQLFEPVEDVKKLLDSVKIKIELVDGKDPKIEAEQLYDLEEIQAKKSIFENRIRRLRSILIHSSFTDRKLHEICSTTISNIETLMNKSDILSVCHHFPRAVEKQDLKKIKHYADMARSLSDTFSQELGNIIDTFSTSSGMYIIEKEHQEAIEN	soluble
MEMFKMSREMLQLAEALASEKNVDAEVVFQALEFALSTAAKKKADREHMDVRVQINRDTGEYQTFRRWLIVADEDYTYPDVEKTIEEIQEEIPDTTIQIGEYYEEQLPNEGFGRQAAQTAKQIILQRIRDAEREQNLNEFLAVKEDIVSGTVKRVERHGIIVEVVAGKLDALIPRDQMIPRENFRSGDRIRALFLRVEEIGNTGRKQIILSRTSGDFLVKLYANEVPEIADGMLEIRAVARDPGQRAKVAVKANDQRIDPQGTCIGVRGSRVNAVSNELSGERIDVVLWSPEPAQFVMSALSPAEVSRIVIDEDKHAVDVIVAEDRLALAIGRGGQNVRLASDLTGWQLNIMTSAEADERNAAEDAAIRRLFMNHLNVDEETADVLVQEGFATLEEVAYVPAAELLAIEGFDEEIVDMLRNRARDAILTMAIAAEEKLGEVSDDMRNLEGVDADMLLSLAEAGITTRDDLAELAVDELIEITGVNEETAKAVILTAREHWFTEDKLEHHHHHH	soluble
MEMISNNLNWFVGVVEDRMDPLKLGRVRVRVVGLHPPQRAQGDVMGIPTEKLPWMSVIQPITSAAMSGIGGSVTGPVEGTRVYGHFLDKWKTNGIVLGTYGGIVREKPNRLEGFSDPTGQYPRRLGNDTNVLNQGGEVGYDSSSNVIQDSNLDTAINPDDRPLSEIPTDDNPNMSMAEMLRRDEGLRLKVYWDTEGYPTIGIGHLIMKQPVRDMAQINKVLSKQVGREITGNPGSITMEEATTLFERDLADMQRDIKSHSKVGPVWQAVNRSRQMALENMAFQMGVGGVAKFNTMLTAMLAGDWEKAYKAGRDSLWYQQTKGRASRVTMIILTGNLESYGVEVKTPARSLSAMAATVAKSSDPADPPIPNDSRILFKEPVSSYKGEYPYVHTMETESGHIQEFDDTPGQERYRLVHPTGTYEEVSPSGRRTRKTVDNLYDITNADGNFLVAGDKKTNVGGSEIYYNMDNRLHQIDGSNTIFVRGDETKTVEGNGTILVKGNVTIIVEGNADITVKGDATTLVEGNQTNTVNGNLSWKVAGTVDWDVGGDWTEKMASMSSISSGQYTIDGSRIDIGSVDHHHHHH	soluble
MENAKMNSLIAQYPLVKDLVALKETTWFNPGTTSLAEGLPYVGLTEQDVQDAHARLSRFAPYLAKAFPETAATGGIIESELVAIPAMQKRLEKEYQQPISGQLLLKKDSHLPISGSIKARGGIYEVLAHAEKLALEAGLLTLDDDYSKLLSPEFKQFFSQYSIAVGSTGNLGLSIGIMSARIGFKVTVHMSADARAWKKAKLRSHGVTVVEYEQDYGVAVEEGRKAAQSDPNCFFIDDENSRTLFLGYSVAGQRLKAQFAQQGRIVDADNPLFVYLPCGVGGGPGGVAFGLKLAFGDHVHCFFAEPTHSPCMLLGVHTGLHDQISVQDIGIDNLTAADGLAVGRASGFVGRAMERLLDGFYTLSDQTMYDMLGWLAQEEGIRLEPSALAGMAGPQRVCASVSYQQMHGFSAEQLRNTTHLVWATGGGMVPEEEMNQYLAKGR	soluble
MENESKTINIELPEEIAQGNYCNLCIVMHSPSEFVLDFIRMVPNRDTARVQNRIILTPDNAKRLLTTLSDNIHRYEVEHGEIHTEQRVSDATFTFPTKIKGEA	soluble
MENKLKLVVVGDTYTGKTSLLVAYTKKQFLDNYTTTVFDNWAVSVHIDNKNYAVNLFDTAGQGNYEQIRCLSYPHANVFLVCFSMIDRKTLESCRSTWIPEIRKYAGDNVPIMLVGTKNDLVDDADSRNTVTEDYAKRVAHEIGCHKFYSCSALTHKGLKRVFDESFLAAVGVKLEEETPNPCCTIL	not soluble
MENKRTLVVALGGNALLKRGEPLEADIQRKNIELAARTIAQLTRQWRVVLVHGNGPQVGLLALQNSAYANVTPYPLDILGAESQGMIGYMLQQALKNHLPEREISVLLTQVEVDANDPAFLNPTKYIGPIYDEAQARALQAEKGWVFKADGNAFRRVVPSPQPKRIVENDAIRALISRDHLVICNGGGGVPVVEKADGYHGIEAVIDKDLSAALLASQIHADALLILTDADAVYLDWGKPTQRPLAQVTPELLREMQFDAGSMGPKVTACAEFVSHCRGIAGIGSLADGQAILAGEKGTLIRCETADVDA	not soluble
MENNTILHNYQDWLEHHKMPAGKKKTLVAAIELFSQQGYNGTSTAQIAEKAGISQATIFKYFKTKSDLLSEIMQPMIPELKRDFFPKLQTYTKLEEVVHFIVQDRFQFLTQNADLIKILIQEALVNVKLRKTLLTNIQLTISKDFMAYWQTLKQINPQINPNLSGIEVIRTNVGLLFAYFTQRFILNIPTPSEQKDLLLIEKQILTLLILDTH	not soluble
MEPKVYKPPISKAIGLVVGSVLPVNPRDLEKMMRRLGIKVEQLSADEARIVLGSGETMVFRSPTVIVMRAKGQPPMVYLVGDYTVEKPREETAAEITEEDVALVAEQAGVSMEEARKALEESGGDIAEAILRLKGEE	not soluble
MEPMHKINKVEVRNLQIEDYIQLSQSFKRVYADKDVFWTHEQIETLIRIFPEGQVVTVVDDKIVGCALSIIVDYDMVKGDHTYAKVTGNETFCTHNPEGNILYGIEVFIHPDYRGLRLARRMYEYRKELCEKLNLKAIMFGGRIPNYYKYADTMRPKEYLDKVRSREIYDPVLTFQLSNDFHVRRVMKNYLP	not soluble
MEPRFAGYAQKVRDSFARQPVMATLGARIDTLLPGRVELCMPYDRALTQQHGFLHAGIVSTVLDSACGYAAFSLMEEEAAVLTVEFKVNFLNPAEGERFAFRAEVVKPGRTLTVATATAYAFRDGEERAIATMTATLMALIGLEHHHHHH	soluble
MEQQQRYISVLDIGTSKVLALIGEVQDDDKINIVGLGQAPSRGLRAGMVTNIDATVQAIRQAVNDAELMADTKITHVTTGIAGNHIRSLNSQGVVKIKDGEVTQADIDRAIETAKAINIPPDQKILDAVVQDYIIDTQLGVREPIGMSGVRLDTRVHIITGASTAVQNVQKCIERCGLKSD	not soluble
MEQYDQLYRLYKSVDTTTLRGYQEFVDLFPPLSSTVALEQWETASDRLDALKADITDEFPGTGETYAEIAARLTRDEAFTALDLYSKYDRSVNVLVLDVDETLRSAGDTDNEIPRDTLYLLTQFHEAGIPIVVCTGQTLENVKGFMIQGLGNDLVSSGQMSIVYESGNGVFTPKHGEDTKRLLYERLDGAVVDVFETVRRRVLSEAPDAVGKRCHLQGNEFNVTLKPNAEVGSDNAVEIIDESLCYLCGLVGDAIAAQVDAEVDDPAGYARAYFSRDPEILDVLEAGGLPTHADIEDAPEAFRDILERVDLGYYEGDAAELVSLELDKSAGVEEAFDVLGIDDPFALVMGDSKSDLRVMRWVDENDAGIAAAPAHSSPDVLDHVSSRDDLVYEAGDASTVLRTIYGISLVEQLDEQGE	soluble
MEQYYGTGRRKEAVARVFLRPGNGKVTVNGQDFNEYFQGLVRAVAALEPLRAVDALGHFDAYITVRGGGKSGQIDAIKLGIARALVQYNPDYRAKLKPLGFLTRDARVVERKKYGKHKARRAPQYSKR	soluble
MERIDSHVSPRYAQIPTFMRLPHDPQPRGYDVVVIGAPYDGGTSYRPGARFGPQAIRSESGLIHGVGIDRGPGTFDLINCVDAGDINLTPFDMNIAIDTAQSHLSGLLKANAAFLMIGGDHSLTVAALRAVAEQHGPLAVVHLDAHSDTNPAFYGGRYHHGTPFRHGIDEKLIDPAAMVQIGIRGHNPKPDSLDYARGHGVRVVTADEFGELGVGGTADLIREKVGQRPVYVSVDIDVVDPAFAPGTGTPAPGGLLSREVLALLRCVGDLKPVGFDVMEVSPLYDHGGITSILATEIGAELLYQYARAHRTQL	soluble
MERIIQQTDYDALSCKLAAISVGYLPSSGLQRLSVDLSKKYTEWHRSYLITLKKFSRRAFGKVDKAMRSSFPVMNYGTYLRTVGIDAAILEFLVANEKVQVVNLGCGSDLRMLPLLQMFPHLAYVDIDYNESVELKNSILRESEILRISLGLSKEDTAKSPFLIDQGRYKLAACDLNDITETTRLLDVCTKREIPTIVISECLLCYMHNNESQLLINTIMSKFSHGLWISYDPIGGSQPNDRFGAIMQSNLKESRNLEMPTLMTYNSKEKYASRWSAAPNVIVNDMWEIFNAQIPESERKRLRSLQFLDELEELKVMQTHYILMKAQWHHHHHH	soluble
MERISLSFVGDVMLAGSATDTLQRYGYSYPFSATAAELRRSDLVVGNLEAPLTDGGREFRAKRFRFKASPVAAAALKRAGFSVMTLANNHMMDFGADGLSDTIHHLNRNGIAFAGAGPSIADARREASVTVRGQTVAFLAYSLTQPIEFFATEGRPGTAPGYAGHYLADIRRVRSSADHVVVSFHWGQERAALPSPYQIETAHRAIDAGADIVIGHHPHVLQGIEIYRGSPIFYSLGNFAFGSRSPSADRSIIARVTLGEGPPIVEVIPLNVLFREVRFQPAILTGRKAADVVDRLNRLSAPFSTVITSTAGSHLVAPAEANARLARRQLEHHHHHH	not soluble
MERLSPVFATSKSSNMEVEHWMTSLKEVEKVLDSVEPKLTSSGTKWRVVAQHIKDICSDLNQIFNKEDPRYEVVQAGASAAHDFDVRYLDIHKVRTPHEPLEMRHSKGRKHGREIARLLEKIQKYRQEIEEIKKEYKETDKYRERYDHYKVKLDNLEKKNKDQERIERNQQKFKDAEAAYSSVCADLIQKMETVWKKHVSIFAEAASAVWSTQLQYAKALEAAANPIVPYLQQEEQEEEEEEEAASGTQGRVAEKAYHTNEEKVENSFQKNSAIPPSFRTASEQLTEQSKNINNAKNTSETSPAEDIEA	soluble
MERVAPNGQFKDVGVDQLFFSTTDAQGRIQETNNTFVELSRYTEEELRNAAHNIIRHPFMPGGVFKIMWDKLQRGETFAGYVRNLAHSGETYDVFATVTPIPGTHDYLSVRQRPCHDDHRALAMTIYAEVGDYEAQLRKDGMSAREAAEAGAGLIGDKLRESGFDNFDAYAHAMLPWEVFCRENMSTGLPQREVAGDLGTELAQAHDVHDHLDEWMLRLDELLTTAQQLGEAREELVDSLGQTSSLGDTIDARSASETLQIVQFQLNVWKGMQKIVDSYVVELAELITTLANDTLRERFQISVSRLHTAMLATFLAELIDGTSATANTEHKVALLKATMRDSLEAIDRGAFHRAQLVRSTISCIRTVTSLMESPRSLLTEAIREAQSLNNDELSAAIATELERSERAANNMHQLVATLESTATTPDIAAMLAEL	not soluble
MERYAAALEEVADGARQQERHYQLLSALQSLVKELPSSFQQRLSYTTLSDLALALLDGTVFEIVQGLLEIQHLTEKSLYNQRLRLQNEHRVLRQALRQKHQEAQQACRPHNLPVVQAAQQRELEAVEHRIREEQRAMDQKIILELDRKVADQQSTLEKAGVAGFYVTTNPQELMLQMNLLELIRKLQQRGCRAGNAALGLGGPWQSPAAQCDQKGSPVPP	soluble

— the DeepSol protein solubility set
